Data from PMC9161741.

Biological target: T1, TFB2M T313E (human, UniProt Q9H5Q4 21-396, T313E)
T1 sequence: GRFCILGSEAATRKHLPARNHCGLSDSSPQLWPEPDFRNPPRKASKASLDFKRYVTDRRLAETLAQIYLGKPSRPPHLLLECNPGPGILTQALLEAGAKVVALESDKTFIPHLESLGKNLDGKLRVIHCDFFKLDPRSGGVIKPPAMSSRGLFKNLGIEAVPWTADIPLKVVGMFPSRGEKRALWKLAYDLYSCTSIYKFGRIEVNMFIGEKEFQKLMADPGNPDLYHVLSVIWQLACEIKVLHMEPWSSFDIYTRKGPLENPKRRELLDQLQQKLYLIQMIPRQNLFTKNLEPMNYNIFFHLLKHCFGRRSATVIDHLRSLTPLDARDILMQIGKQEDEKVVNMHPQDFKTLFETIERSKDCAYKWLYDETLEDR
Assay: fluorescence anisotropy

B1: LSP (-17 to +19), fluorescein (dsDNA)
DNA 1: AAAAGTGCATACCGCCAAAAGATAAAATTTGAAATC
DNA 2: GATTTCAAATTTTATCTTTTGGCGGTATGCACTTTT
Kd: > 150 nM
